According to US20240425589A1, “CYTOTOXICITY-INDUCING THERAPEUTIC AGENT FOR USE IN TREATMENT OF CANCER” (CHUGAI SEIYAKU KABUSHIKI KAISHA, priority 2021, published 2024):

Assays:
human CLDN6 VLP = biological target: T1, human CLDN6 VLP (Homo sapiens, UniProt P56747); assay: Biacore T200 SPR affinity to human CLDN6 VLP; format: binding; settings: human CLDN6, 25 degree C, pH 7.4
T1 sequence (P56747 1-220): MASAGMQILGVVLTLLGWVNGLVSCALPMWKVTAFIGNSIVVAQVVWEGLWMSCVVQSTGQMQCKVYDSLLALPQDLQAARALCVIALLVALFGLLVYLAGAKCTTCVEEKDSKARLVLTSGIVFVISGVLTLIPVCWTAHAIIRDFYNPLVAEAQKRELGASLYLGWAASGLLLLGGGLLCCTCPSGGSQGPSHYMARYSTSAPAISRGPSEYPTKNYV
Description: The binding affinity of the anti-CLDN6/Dual-Fab tri-specific antibody against human and cynomolgus (cyno) CLDN6 VLP (virus-like particle) at pH 7.4 was determined at 25 degree C. using Biacore T200 instrument (GE Healthcare). Anti-human CD81 (BD Pharmingen) antibody was immobilized onto all flow cells of a C1 sensor chip using amine coupling kit (GE Healthcare). Human and cyno CLDN6 VLP were captured onto the sensor surface by the anti-human CD81 antibody. Each VLP was 5-fold dilution by buffer (20 mM NaPhosphate, 150 mM NaCl, 0.1 mg/mL BSA, 0.005% NaN3, pH 7.4). Tested antibody was prepared in buffer (20 mM NaPhosphate, 150 mM NaCl, 0.1 mg/mL BSA, 0.005% NaN3, pH 7.4). Anti-CLDN6/Dual-Fab tri-specific antibody was injected at 50 and 200 nM, followed by dissociation. Sensor surface was regenerated each cycle with 0.1% SDS and 100 mM H3PO4. […] Binding affinities were determined by processing and fitting the data to 1:1 binding model using Biacore T200 Evaluation software, version 2.0 (GE Healthcare).

recombinant human CD137 = biological target: T2, recombinant human CD137 (Homo sapiens, UniProt Q07011); assay: Biacore 8K SPR affinity to human CD137; format: binding; settings: human CD137, 37 degree C, pH 7.4
T2 construct: made in house; host or cells: FreeStyle293F
T2 sequence (Q07011 with tags, fused parts or gaps): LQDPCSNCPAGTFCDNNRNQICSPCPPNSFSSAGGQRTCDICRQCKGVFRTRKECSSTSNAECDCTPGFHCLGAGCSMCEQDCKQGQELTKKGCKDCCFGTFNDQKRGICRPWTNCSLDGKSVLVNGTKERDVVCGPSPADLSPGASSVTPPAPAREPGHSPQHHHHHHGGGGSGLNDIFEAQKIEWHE
Description: The binding affinity of the anti-CLDN6/Dual-Fab tri-specific antibody against recombinant human and cyno CD3eg (gamma and epsilon subunits of CD3) at pH 7.4 was determined at 25 degree C. using Biacore 8K instrument (GE Healthcare). The binding affinity of the anti-CLDN6/Dual-Fab tri-specific antibody against recombinant human and cyno CD137 at pH 7.4 was determined at 37 degree C. using Biacore 8K instrument (GE Healthcare). Anti-human Fc (GE Healthcare) antibody was immobilized onto all flow cells of a CM4 sensor chip using amine coupling kit (GE Healthcare). Tested antibody and analytes were prepared in ACES pH 7.4 containing 20 mM ACES, 150 mM NaCl, 0.05% Tween 20, 0.005% NaN3. Anti-CLDN6/Dual-Fab tri-specific antibody was captured onto the sensor surface by anti-human Fc. Antibody capture levels were aimed at 300 resonance unit (RU). Recombinant CD3eg and CD137 were injected at both 500 and 2000 nM, followed by dissociation. Sensor surface was regenerated each cycle with 3M MgCl2. […] Binding affinities were determined by processing and fitting the data to 1:1 binding model using Biacore Insight Evaluation software (GE Healthcare).

[1] = tested on: GloResponse NFAT-luc2 Jurkat cells with OVCAR3 and H1435 cells; assay: NFAT-luc2 Jurkat luciferase assay with chemotherapeutic-treated cancer cells; format: cell-based, human; settings: cells treated with cisplatin or carboplatin for 5 days vs untreated
Description: Next, measurement was carried out based on a luciferase assay system using GloResponse NFAT-luc2 Jurkat cells (Promega, J1601) to see if T-cell-activation ability of CS4135 antibody via CD3 binding will change depending on the presence or absence of treatment by a chemotherapeutic agent.
The assay was performed as follows. First, as described above, OVCAR3 and H1435 cells treated with a chemotherapeutic agent for 5 days were detached from a culture flask and plated at 25 μL/well (2×10^4 cells) onto a white flat-bottom 96-well plate (Coster #3917). Next, 1×10^5 Jurkat/NFAT-RE reporter cell line together with the CS4135 antibody at a concentration selected from 0.003, 0.03, 0.3, 3, or 30 nM were added at 25 μL/well. After culturing overnight at 37° C., Bio-Glo reagent (Promega #G7941) was added at 75 μL/well followed by further incubation at room temperature for 10 minutes. Then, luminescence arose from activated Jurkat cells was measured using an EnSpire (PerkinElmer Japan) device. The luminescence magnification of each well was calculated by comparing the wells with the antibody to the wells without the antibody.

OV-90 = assay: LDH release cytotoxicity on olaparib-treated OV-90; format: cell-based; settings: OV-90, olaparib 3 μM three days vs DMSO, human PBMC
Description: The effect of the enhanced induction of CLDN6 expression in BRCA1-deficient ovarian cancer cell line UWB1.289, caused by the PARP inhibitor (olaparib), on the cytotoxic activity of anti-CLDN6/Dual-Fab tri-specific antibody CS4135 was assessed.
BRCA1-deficient ovarian cancer cell line UWB1.289 (ATCC) or BRAC1 wildtype ovarian cancer cell line OV-90 (ATCC) which express human CLDN6 were used as target cells.
Each target cell (3×10^5 cells) were seeded at 5 mL into a 25 cm^2-flask. Two flasks were prepared for each target cell. After culturing overnight, olaparib was added at a final concentration of 3 μM to one of the two flasks. DMSO was added to the other flask. After incubating the flasks for three days, the target cells were recovered, and the cytotoxic activity of the CS4135 antibody was evaluated by […] (LDH) release assay using human PBMC as the effector cell.

OVCAR3 = OVCAR3 xenograft in huNOG mice, combination with carboplatin; format: in vivo; settings: 56 days after transplantation; CS4135 0.1 mg/kg iv days 38, 45 (sequential: 48, 55), carboplatin 60 mg/kg ip days 38, 45
Description: In this test, NOG (huNOG) mice (described in the aforementioned Example 13) transplanted with ovarian cancer cell line OVCAR3 and human CD34-positive cells were used. The OVCAR3 cell line was transplanted subcutaneously to the right flank of the mice, and the mice were divided into groups 38 days after transplantation. Individuals whose tumor volume reached 119 to 210 mm^3 were divided into groups. Vehicle 1 and CS4135 were administered into the mouse tail vein 38 and 45 days after transplantation. PBS containing 0.05% Tween-20 was used as Vehicle 1. Vehicle 2 and carboplatin (Bristol Myers Squibb Company) were administered intraperitoneally to the mice 38 and 45 days after transplantation. Physiological saline was used as Vehicle 2.
Tumor volume was measured 38, 42, 45, 48, 52, and 56 days after transplantation, and the average tumor volume was indicated for each group. The tumor volume was calculated by the following equation: […]
Tumor Growth Inhibition (TGI) was calculated by the following equation: […]

B1: PPU4135: anti-CLDN6/Dual-Fab tri-specific antibody, chains SEQ ID NOs 42, 51, 56, 69; CS4135 same antibody (protein)
chain 1: QVQLVESGGGVVQPGGSLRLSCAASGFTFSSYTMSWVRQAPGQGLEWMGTISSGGGRTYYPDSVKGRFTISRDNSKNTLYLQMNSLRDEDTAVYYCARGDYRYDGFAYWGEGTLVTVSSASTKGPSVFPLAPSSKSTSGGTAALGCLVEDYFPEPVTVSWNSGALTSGVHTFPAVLESSGLYSLSSVVTVPSSSLGTQTYICNVNHKPSNTKVDKRVEPKSCDKTHTCPPCPAPEAAGGPSVFLFPPKPKDTLMISRTPEVTCVVVDVSHEDPEVKFNWYVDGVEVHNAKTKPREEQYASTYRVVSVLTVLHQDWLNGKEYKCKVSNKALPAPIEKTISKAKGQPREPQVYTLPPSREEMTKNQVSLTCLVKGFYPSDIAVEWESNGQPENNYKTTPPVLDSDGSFFLYSKLTVDKSRWQQGNVFSCSVMHEALHNHYTQESLSLSP
chain 2: DIQMTQSPSSLSASVGDRVTITCRASYNIDSYLAWYQQKPGKAPELLIYYSTLLVDGVPDRFSGSRSGTDFTLTISSLQPEDFATYYCQHYYSIPYTFGQGTKVEIERTVAAPSVFIFPPSDEQLKSGTAKVVCLLNNFYPREAKVQWKVDNALQSGNSKESVTEQDSKDSTYSLSSTLTLSKADYEKHKVYACEVTHQGLSSPVTKSFNRGEC
chain 3: QVQLVESGGGLVQPGRSLRLSCAASGFKFSNVWFHWVRQAPGKGLEWVAQIKDYYNAYAAYYAPSVKGRFTISRDDSKNSIYLQMNSLKTEDTAVYYCHYVHYASASTLLPAEGVDAWGQGTTVTVSSASTKGPSVFPLAPSSKSTSGGTAALGCLVKDYFPEPVTVSWNSGALTSGVHTFPAVLKSSGLYSLSSVVTVPSSSLGTQTYICNVNHKPSNTKVDKRVEPKSCDKTHTCPPCPAPEAAGGPSVFLFPPKPKDTLMISRTPEVTCVVVDVSHEDPEVKFNWYVDGVEVHNAKTKPREEQYASTYRVVSVLTVLHQDWLNGKEYKCKVSNKALPAPIEKTISKAKGQPREPQVYTLPPSRKEMTKNQVSLTCLVKGFYPSDIAVEWESNGQPENNYKTTPPVLDSDGSFFLYSKLTVDKSRWQQGNVFSCSVMHEALHNHYTQKSLSLSP
chain 4: DIVMTQSPLSLPVTPGEPASISCQPSQEVVHMNRNTYLHWYQQKPGQAPRLLIYKVSNRFPGVPDRFSGSGSGTDFTLKISRVEAEDVGVYYCAQGTSHPFTFGQGTKLEIKRTVAAPSVFIFPPSDEQLKSGTAEVVCLLNNFYPREAKVQWKVDNALQSGNSEESVTEQDSKDSTYSLSSTLTLSKADYEKHKVYACEVTHQGLSSPVTKSFNRGEC
ka (human CLDN6 VLP): 217000 M⁻¹ s⁻¹ | kd (human CLDN6 VLP): 0.000794 s⁻¹ | ka (recombinant human CD137): 12600 M⁻¹ s⁻¹ | kd (recombinant human CD137): 0.000591 s⁻¹ | T cell activation ability via CD3 [1]: enhanced | cytotoxic activity after addition of olaparib (OV-90): no effect on cytotoxic activity | Tumor growth inhibition: TGI (OVCAR3): 18%
